assay: soluble on expression in E. coli; label from the status in PepcDB or PDB records

| Sequence | soluble on expression in E. coli |
| --- | --- |
| MKITHCKLKKKVQKELLRFFVLEVTARSAADILGIHPNSAVLFYRKIRMVISHYLALAANEVFEGSVELDESYFGGRRKGKRGRGAAGKVVVFGILKRNGRVYTVVVDNAKSDTLMPVIKQKIMPDSIVYTDSLSSYDKLDVSGFIHYRINHSKEFADRQNHINGIENFWNQAKRVLRK | not soluble |
| MLTPISIEKEHIRLINLLHFINEQNRWFTIKELSDYLQVADKTVRKYLKLLEDEIPPSWNLLVQKGKGIYLKKPLNESLSFVESKILRKSLNLQICEELVFKKNSMQSLAQKLHLQVGALYPIINQINYDIQSSHLNIKKKPLEISGREQDVRVFMLRLYCNIPNDYWPFPYINKQNITDLINKMEKILNVQMYTYSKHKLCVLFAITISRLLSGNTIDNVSGLILVNKNDDHYKTVASITSELQNSFGVTLHETEISFLALALLLSLGNSITTDSNKTLTSYKKTIMPLAKEITKGIEHKLQLGINYDESFLTYVVLIIKKALDKNFIQYYNYNIKFIRHIKQRHPNTFNTIQECISNLNYTVYSHFDCYEISLLTMHFETQRMLFKNNPKKIYVYTSQGCIHREYISALLEKRYNGLIKIVRNTIINLTNESLQDMEIDIIISNVNLPIKNIPIVQISEFPTERDFHEIKKII | not soluble |
| MQVSVRDNNVDQALRALKKKLQREGVFREMKLKQHFEKPSEKKAREKAEAIRRARKLARKKAQREGMLLEHHHHHH | not soluble |
| MKRIGILTSGGDAPGMNAAVRAVTRVAIANGLEVFGIRYGFAGLVAGDIFPLESEDVAHLINVSGTFLYSARYPEFAEEEGQLAGIEQLKKHGIDAVVVIGGDGSYHGALQLTRHGFNSIGLPGTIDNDIPYTDATIGYDTACMTAMDAIDKIRDTASSHHRVFIVNVMGRNCGDIAMRVGVACGADAIVIPERPYDVEEIANRLKQAQESGKDHGLVVVAEGVMTADQFMAELKKYGDFDVRANVLGHMQRGGTPTVSDRVLASKLGSEAVHLLLEGKGGLAVGIENGKVTSHDILDLFDESHRGDYDLLKLNADLSR | soluble |
| MKTLNRRDFPGAQYPERIIQFGEGNFLRAFVDWQIDLLNEHTDLNSGVVVVRPIETSFPPSLSTQDGLYTTIIRGLNEKGEAVSDARLIRSVNREISVYSEYDEFLKLAHNPEMRFVFSNTTEAGISYHAGDKFDDAPAVSYPAKLTRLLFERFSHFNGALDKGWIIIPCELIDYNGDALRELVLRYAQEWALPEAFIQWLDQANSFCSTLVDRIVTGYPRDEVAKLEEELGYHDGFLDTAEHFYLFVIQGPKSLATELRLDKYPLNVLIVDDIKPYKERKVAILNGAHTALVPVAFQAGLDTVGEAMNDAEICAFVEKAIYEEIIPVLDLPRDELESFASAVTGRFRNPYIKHQLLSIALNGMTKFRTRILPQLLAGQKANGTLPARLTFALAALIAFYRGERNGETYPVQDDAHWLERYQQLWSQHRDRVIGTQELVAIVLAEKDHWEQDLTQVPGLVEQVANDLDAILEKGMREAVRPLC | not soluble |
| MGSDKIHHHHHHMSYTTNKQPQGYPYFVTSKLREDMIGELVAINDYSFIISNSNIKEINDVLYHIRQEEHNHYGMLLELLRKYDPMEMDAYLRVIAHTTLTPVKEYLTVNSGITDKLLLNYLREGAKGELEAIILYEQHLAEIPYSDIRETLQKIVYEEKEHLEELTLVLINYDKDKYGSIKK | not soluble |
| MGSDKIHHHHHHMTDSTIDALNKKLDRLIEAVGRLAPPPVPETDLAEADCFVWQADPGYLEPVRKVNRVDIGLIRGVDRVRDILVDNTERFAAGFAANNVLLWGARGMGKSSLVKAVHAEINAKSKSQKAKSDLPLKLIEIHREDIDTLPKLMGLLKAAPFRVILFCDDLSFDHDDTSYKSLKAALEGGVEGRPANVIFYATSNRRHLLPRDMIDNERSTAINPSEAVEEKVSLSDRFGLWLGFHKCSQDEYLEMVNAYASHHGLDIDPEQLRAEALEWATTRGSRSGRVAWQFTQDLAGRLGKPLKD | not soluble |
| EPTNAPAALSRRFSVAPMMDWTDRHCRFFLRQLSRHTLLYTEMVTTGALLHGDRQRFLRYDECEHPLALQLGGSVPAELAACARLAEEAGYDEVNLNVGCPSDRVQHNMIGACLMGHPALVADCVKAMLDAVEIAVTVKHRIGINGRDSYAELCDFVGQVREAGCRSFTVHARIAILEGLSPKENREVPPLRYEVAAQLKKDFPDLEIVLNGGIKTLEACREHLQTFDGVMLGREAYHNPYLLAAVDSQLFGSEAPPLSRSEALLRLRPYIERHQAEGGAMHHVTRHILGLAQGFPGSRRFRQLLSVDVHKAADPLRVFDQA | not soluble |
| MGSDKIHHHHHHMSVETKLTIDKEYVQSFSDARNEPQWFKDIRLKGFELVETLELPKPDKTKITSWNFTNFDHKLPEVSPVASIDELRDEVKGLIGEASDTQNLLVQRDATVVYSKLDEALKAKGVIFTDLLTAVKEHGDLVEKYYMKDAVKVDENRLTALHAALVNGGTFIYVPRNVEIEVPLQSVFWFDTEKAGLFNHVIIVAEDNSSITYVENYASFGSEEAVANIVVEVFAGANAKVSFGAVDNLAAGVTTYVVRRAHVGRDSRVEWALGQMNDGNTVSENTTHLLGDNSWADTKTVSVGRGEQKQNFTTQIFHHGKHSEGYILKHGVMREAATSIFNGISKIEHGATKSHGEQTERVLMLSEKARGDANPILLIDEDDVTAGHAASVGKIDPIQMFYLMSRGISRAEAERLVIHGFLAPVVGQLPIESVKERLVEAIERKVK | not soluble |
| NVRVITDENWRELLEGDWMIEFYAPWCPACQNLQPEWESFAEWGEDLEVNIAKVDVTEQPGLSGRFIINALPTIYHCKDGEFRRYQGPRTKKDFINFISDKEWKSIEPVSSWF | soluble |
| MPLYVIDKPITLHILTQLRDKYTDQINFRKNLVRLGRILGYEISNTLDYEIVEVETPLGVKTKGVDITDLNNIVIINILRAAVPLVEGLLKAFPKARQGVIGASRVEVDGKEVPKDMDVYIYYKKIPDIRAKVDNVIIADPMIATASTMLKVLEEVVKANPKRIYIVSIISSEYGVNKILSKYPFIYLFTVAIDPELNNKGYILPGLGDAGDRAFG | soluble |
| MEQLRGLYPPLAAYDSGWLDTGDGHRIYWELSGNPNGKPAVFIHGGPGGGISPHHRQLFDPERYKVLLFDQRGCGRSRPHASLDNNTTWHLVADIERLREMAGVEQWLVFGGSWGSTLALAYAQTHPERVSEMVLRGIFTLRKQRLHWYYQDGASRFFPEKWERVLSILSDDERKDVIAAYRQRLTSADPQVQLEAAKLWSVWEGETVTLLPSRESASFGEDDFALAFARIENHYFTHLGFLESDDQLLRNVPLIRHIPAVIVHGRYDMACQVQNAWDLAKAWPEAELHIVEGAGHSYDEPGILHQLMIATDRFAGK | soluble |
| MNFTDTHCHLADPALRENLPHILTAARKVGVKRFIVPATRPQDWQDVADLAEMPSEHGQIRIALGIHPWFSDGIAERDFVRLETMLAHYPQAWVGEIGLDFYDKTQTSQQRERQIQVFVRQLEIAQTLRRRVIIHNLKATADIAAAVKQTGFAQGGIVHAFSGSAEEARVLTKLGFKIGIGSLLLNPNARKVRDTLKALNDGDFVLETDSPFMLKKEINTPANIPGIAKIAAEIRGTCVEEIAKVTERNADALLGR | not soluble |
| MASYSSILVLSVCTIGALAVMEHNSYYPGGHSTSYYQPFQTDTYGSKYYNTESYGKYDEHGNNGKDSHYEPNYYNPIASYYHSYMPKYHGGHNDYYTKYNQYTPYYGGSHQQNYYEQPKHDDYHGGDHHYDMHK | not soluble |
| MGSDKIHHHHHHMQTLTIDVGGSKALFELQLAGHTEQYKIPTGEGFKIEELNNQIAALERDYDLQDYQLAIAVPGLVQHHRLVACKSLPGLNGLSIDTVKTQGTLKIISNDIDAGMQALCDAKYACELLVMCGSGIGMSIAFNGQVFSGATGVAGELGHCRIMSESGEFRLEQLASGDSVRSRNITSQEDLYRAGSYLGMGLAWAVNLLNPNRIWLAGGMMNSTPYYKGCIDNLKRMALSAPLAEMKIHRVDDMETLVCRGLSVILARDVSLT | not soluble |
| MNKLITVIRDFSYSVYNWCYETVIGENTRKYKMTWKVPKESLKIIVNKNADARMQRELENRTAKDEANALTSRRRVFGSYALIGTQRAEFIQFRQIKHIDITNASLDFLYNLKQLKHDNLANFYGIQLNDDLNTMTILHALVERGTLEEFCLDRDFGMDETFKSAFMRDILKGLQYLHLSPVAYHGHLHAATCLIDINWVLKIALYGVTNFVCDNFDAENITMPDRSDYTISYAQYVCFPPEHIREYDATGKLPTRFVRGSKQGDIYCVGMIFYMMIEREDPYRLIHSVERPGSGLMMEILDHNLMPFISNNETQEDTLLDKCKECWNRDPEKRPTIENLRNAIAICYADSKGNLIDQMIRMNEKYADELETLVAARSADLALAQMQTMRLLNEMLPASIAKDLKNGVIAPARSYASATVMFVQICDFIVILKRRPPKEVIGFLNDIFDQFDTVIKRHDVETTGETYMVASGVPNENEGRHVFEVAEMSLEIRAISLSYTLENDKNYKLRVRIGFHAGPIAAGVIGIKNPRYCLFGDTVNFASRMQSNCPPLQIQTSEITARMLLATHEYKLVKRGIVHVKGKGEVNCYWLNEHIHKDEEIEESGTISHPLES | not soluble |
| MNPIAVTLLTGFLGAGKTTLLRHILNEQHGYKIAVIENEFGEVSVDDQLIGDRATQIKTLTNGCICCSRSNELEDALLDLLDNLDKGNIQFDRLVIECTGMADPGPIIQTFFSHEVLCQRYLLDGVIALVDAVHADEQMNQFTIAQSQVGYADRILLTKTDVAGEAEKLHERLARINARAPVYTVTHGDIDLGLLFNTNGFMLEENVVSTKPRFHFIADKQNDISSIVVELDYPVDISEVSRVMENLLLESADKLLRYKGMLWIDGEPNRLLFQGVQRLYSADWDRPWGDEKPHSTMVFIGIQLPEEEIRAAFAGLRK | soluble |
| MGSDKIHHHHHHMLTMKPEFVAQLERVLSSVEMLLPRAVKPVNWSTCYAANWRRHSFSGFLQAVRVTDTTSLHELLGVEKQKEIMISNTRQFLKGLPANNALLWGSRGTGKSSLVKALLNEYACEGLRVIQVEKEDLIYLSDIFSAVEGEPYRFILLCDDLTFEPGELTYKILKSALDGSVYSPPENVLIYVTSNRRHLLPEYESDNIGWKLVNGELQESEATEEKIALSDRFGLWVPFHVFTQDRYLEAVRLCVEREARTREVDIPWSEQLRLDAIQWSHDKKKRCGRTAYQFSKHWVGKYLLARQAA | not soluble |
| MKFLTVSDDMNFLRQVNTLVAGKGDMDSVIIGEGDAKGLGSKVLYRAKKGTPFDAVSEGILKIAGNYDYIAIGSTEVGREIAGYLSFKTGFYTATEIFSLEFNGQKAHTKRFFYGGKTVIEEESDARILTVAPGVIEAKDLGTTPEIRDLEIGQSRIKITKFVSKAGGSVRLEDAKVIVSVGRGIGSKENIAKIEPLAKALNGEIAGSRPVCMDYGWLSEDRQVGLSGKKVSPKVYIALGISGQIQHIAGMRNSKTVIAINKDKNAPIFQECDYGIVGDLFTVVPKILEQLKQ | not soluble |
| GHMSESREARLIIFHAGSLSIPLSQVEEKFTKYAQEKLGVKVTFQDEASGSVKAVRKVTDLKKRADIVAVADYTLIPQLMIPNYTDFYVLFATNEIVIAFTNKSKYADEMLKNPDKWYEILSRPDVSFGFSDPNQDPCGYRSVMVMKLAELYYGRPIFKELVEKTTNIYSNGTRIYAPKEIIIKDKRVIMRPKETDLVGLVESGSLDYIFIYKSVAKQHHLSYITLPDDINLGDFNKADFYGRVSITLGSTGKTIKAKPIVYGITVLKNAPNRELAIEFLRFLLGNEGRKIFEDNYQEFLSPPVAFGNVPPEIRRLVEVK | soluble |
| FDSFKIEGRAKNADYVMRTTKIYREAIDSVLDGSYYDKLEYFKKELQKVYNRSYDTGFYFRDINKNHDFQYEIEGNASKYRKIEIGRVVNFYKKVSVAEIELWHDLKIGDTILIIGKTTGCVEEVVKSMQINHKDVEIAKKGERVGVKLNHLVREGDRVYLLKET | not soluble |

Source: the DeepSol protein solubility set
